Source: patent publication US20040260068A1 (published 2004)

T1: recombinant soluble human L-selectin (human, UniProt P14151 39-332)
T1 construct: extracellular domain; The residue numbers 1-279 count on the mature protein, not on the precursor
T1 sequence (looked up): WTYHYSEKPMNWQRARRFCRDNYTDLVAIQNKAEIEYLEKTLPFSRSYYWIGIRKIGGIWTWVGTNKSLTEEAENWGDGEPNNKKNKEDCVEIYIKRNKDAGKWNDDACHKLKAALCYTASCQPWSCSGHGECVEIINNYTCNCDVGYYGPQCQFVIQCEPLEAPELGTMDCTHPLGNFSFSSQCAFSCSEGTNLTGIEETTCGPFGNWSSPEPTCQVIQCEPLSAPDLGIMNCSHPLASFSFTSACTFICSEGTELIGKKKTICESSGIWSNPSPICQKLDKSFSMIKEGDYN

T2: human E-selectin on CHO-K1 transfectant cells (human, UniProt P16581 22-610)
T2 construct: whole, on cells; also called CHO-E Selectin; CHO-E selectin
T2 sequence (looked up): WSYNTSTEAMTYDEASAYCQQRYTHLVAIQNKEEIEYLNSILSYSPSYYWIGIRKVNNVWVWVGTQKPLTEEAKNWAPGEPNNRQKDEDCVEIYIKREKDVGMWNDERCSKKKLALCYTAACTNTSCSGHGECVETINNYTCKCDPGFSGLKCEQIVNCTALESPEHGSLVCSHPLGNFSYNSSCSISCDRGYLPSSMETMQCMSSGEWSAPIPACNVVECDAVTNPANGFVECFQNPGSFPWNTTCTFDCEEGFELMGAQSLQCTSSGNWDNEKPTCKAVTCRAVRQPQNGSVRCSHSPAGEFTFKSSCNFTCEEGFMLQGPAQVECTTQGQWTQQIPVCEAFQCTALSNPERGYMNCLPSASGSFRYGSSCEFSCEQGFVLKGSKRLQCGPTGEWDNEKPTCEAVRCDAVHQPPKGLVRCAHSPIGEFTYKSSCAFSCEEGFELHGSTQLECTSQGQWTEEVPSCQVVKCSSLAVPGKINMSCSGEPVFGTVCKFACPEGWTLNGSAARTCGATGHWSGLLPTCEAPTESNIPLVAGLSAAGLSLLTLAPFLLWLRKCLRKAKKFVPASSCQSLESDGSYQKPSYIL

T3: human P-selectin on CHO-K1 transfectant cells (human, UniProt P16109 42-830)
T3 construct: whole, on cells; also called CHO-P selectin
T3 sequence (looked up): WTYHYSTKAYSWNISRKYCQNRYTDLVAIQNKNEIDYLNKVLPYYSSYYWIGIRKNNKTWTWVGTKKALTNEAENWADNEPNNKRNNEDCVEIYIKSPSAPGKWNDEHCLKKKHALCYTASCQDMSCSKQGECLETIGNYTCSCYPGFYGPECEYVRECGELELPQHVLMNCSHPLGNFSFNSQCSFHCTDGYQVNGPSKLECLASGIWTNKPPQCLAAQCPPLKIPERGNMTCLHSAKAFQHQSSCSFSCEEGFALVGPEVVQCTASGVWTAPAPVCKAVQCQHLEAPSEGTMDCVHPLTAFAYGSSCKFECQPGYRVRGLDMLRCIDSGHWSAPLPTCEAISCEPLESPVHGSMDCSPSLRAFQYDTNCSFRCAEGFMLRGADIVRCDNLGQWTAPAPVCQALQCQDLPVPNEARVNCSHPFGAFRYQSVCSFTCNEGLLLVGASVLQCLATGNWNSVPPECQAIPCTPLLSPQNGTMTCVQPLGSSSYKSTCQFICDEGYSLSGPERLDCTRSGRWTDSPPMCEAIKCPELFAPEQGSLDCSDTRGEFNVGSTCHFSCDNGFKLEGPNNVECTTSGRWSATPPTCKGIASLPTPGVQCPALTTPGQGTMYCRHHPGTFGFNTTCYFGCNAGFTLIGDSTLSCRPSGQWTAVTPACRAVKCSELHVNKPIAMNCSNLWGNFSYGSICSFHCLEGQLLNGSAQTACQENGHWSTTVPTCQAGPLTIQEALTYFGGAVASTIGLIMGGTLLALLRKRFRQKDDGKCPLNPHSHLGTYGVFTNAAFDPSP

B1: humanized anti-L-selectin antibody D3 (antibody, V domains shown)
VH: EVQLLESGGGLVQPGGSLRLSCAASGFSIGSYNMHWVRQAPGKGLEWVAGISGAGSRTAWYGAAVKGRATISRDNAKNTVYLQMNSLRAEDTAVYYCAKDYGGSGSPWYGWGAASWIDAWGQGTLVTVSS
VL: SSELTQDPAVSVALGQTVRITCSGGSYYGWYQQKPGQAPVTVIYDNDKRPSDIPSRFSGSKSGSTGSLTITGAQAEDEADYYCGSADSAYVGIFGGGTKLTVL
notes: Transiently expressed in 293-H cells; also called HuD3; humanized D3
B2: chicken-human chimeric anti-L-selectin antibody D3 (antibody, V domains shown)
VH: AVTLDESGGGLQTPGGALSLVCRASGFSIGSYNMHWVRQAPGKGLEWVAGISGAGSRTAWYGAAVKGRATISRDNGQSTVRLQLNNLRAEDTGTYYCAKDYGGSGSPWYGWGAASWIDAWGHGTEVIVSS
VL: ALTQPASVSANPGETVKITCSGGSYYGWYQQKSPGSAPVTVIYDNDKRPSDIPSRFSGSKSGSTGTLTITGVQAEDEAVYFCGSADSAYVGIFGAGTTLTVL
notes: Transiently expressed in 293-H cells; also called ChD3; chimeric D3

Assays:
[1] = biological target: T1, recombinant soluble human L-selectin; experiment: competition ELISA on coated soluble human L-selectin; competitor of biotinylated ChD3
Procedure: ELISA plates were coated with 0.25 μg/ml soluble human L-selectin in 0.2 M sodium carbonate buffer (pH 9.4) and blocked with SuperBlock blocking buffer (Pierce). […] As controls, humanized anti-human L-selectin monoclonal antibody HuDREG55 (Co et al., Immunotechol. 4:253-266 (1999)) and humanized anti-human HLA-DR monoclonal antibody Hu1D10 (Kostelny et al., Int. J. Cancer 93:556-565 (2001)) were used. ELISA plates were incubated at room temperature for 2 hr. After washing the wells with Washing Buffer (PBS containing 0.1% Tween 20), 100 μl of 1 μg/ml HRP-conjugated streptavidin (Pierce) in ELISA buffer was added to each well. ELISA plates were incubated at room temperature for 60 min and washed with Washing Buffer. For color development, 100 μl/well of ABTS substrate was added. Color development was stopped by adding 100 μl/well of 2% oxalic acid. Absorbance was read at 415 nm.

[2] = biological target: T2, human E-selectin on CHO-K1 transfectant …; experiment: flow cytometry on CHO-K1 transfectants
Procedure: (§1) 2×10⁵ cells were incubated on ice for 30 minutes in FACS buffer (PBS containing 1% bovine serum albumin and 0.2% sodium azide) with 1 μg of test antibody or buffer alone. After incubation, cells were washed three times with FACS buffer and subsequently incubated for another 30 minutes with PE-conjugated donkey anti-human IgG F(ab′)2 fragment (Jackson ImmunoResearch). After washing three times with FACS buffer, relative cell fluorescence was analyzed by flow cytometry using a Cyan (DAKOCytomation).

[3] = biological target: T3, human P-selectin on CHO-K1 transfectant …; experiment: flow cytometry on CHO-K1 transfectants
Procedure: as §1

[4] = biological target: T3, human P-selectin on CHO-K1 transfectant …; experiment: flow cytometry on CHO-K1 transfectants; panel H read as CHO-P selectin
Procedure: as §1

Row | Binder | IC50 [1] | binding result [2] | binding result [3] | binding result [4]
1 | B1 | 2.9 µg/mL | no binding (tested: 1 µg of test antibody) | no binding (tested: 1 µg of test antibody) | –
2 | B2 | 3.4 µg/mL | no binding (tested: 1 µg of test antibody) | – | no binding (tested: 1 µg of test antibody)
